{"source": "patent US20140274901A1", "about": "“PROANP COMPOSITIONS AND METHODS FOR TREATING ACUTE HEART FAILURE” (Mayo Foundation for Medical Education and Research, priority 2013, published 2014)", "molecules": {"B1": {"name": "proANP (protein, listed as Homo sapiens)", "chain": "NPMYNAVSNADLMDFKNLLDHLEEKMPLEDEVVPPQVLSEPNEEAGAALSPLPEVPPWTGEVSPAQRDGGALGRGPWDSSDRSALLKSKLRALLTAPRSLRRSSCFGGRMDRIGAQSGLGCNSFRY", "modifications": "His tag in serum", "notes": "126 amino acid pro form of atrial natriuretic peptide"}}, "key": {"in vivo": {"test": "in vivo", "conditions": "dog, iv, 667 pmol/kg", "protocol": "(§3) Blood samples were obtained from aorta and renal vein and urine is obtained before and 2.5, 5, 10, 15, 30, 60, 120, and 180 min after injection. […] These doses were similar to doses of carperitide/nesiritide in clinical use.\n(§4) Canine ANP1-28 and NT-proANP concentrations are determined by specific immunoassays as described elsewhere (Ichiki et al., Clin Chem, 2011, 57:40-47; Ichiki et al., 2012, supra; Chen et al., J Am Coll Cardiol, 2000, 35:240A; and Chen et al., Am J Physiol Regul Integr Comp Physiol, 2005, 288:R1093-1097).\n(§5) The in vivo effects of canine proANP, ANP1-28, and BNP1-32 were examined in normal canines (FIG. 6)."}, "cGMP": {"test_system": "cGMP", "test": "Plasma and urinary cGMP after bolus intravenous injection in normal canines", "type": "in vivo, canine", "conditions": "for PcGMP AUC / PcGMP Cmax: plasma cGMP; for PcGMP AUC / PcGMP Cmax / UcGMP AUC / UcGMP Cmax: intravenous bolus 667 pmol/kg; for UcGMP AUC / UcGMP Cmax: urinary cGMP excretion", "procedure": "(§1) The samples were ether extracted four times in 4 volumes of ether, dried, and reconstituted in 300 ul cGMP assay buffer, and the cGMP levels were measured using a competitive RIA cGMP kit (Perkin-Elmer, Boston, Mass.)."}, "[1]": {"test": "Hemodynamic and renal actions after bolus intravenous injection in normal canines", "type": "in vivo, canine", "protocol": "Blood samples were obtained from aorta and renal vein and urine is obtained before and 2.5, 5, 10, 15, 30, 60, 120, and 180 min after injection.\nas §5"}, "[2]": {"test": "Pharmacokinetic analysis of NP immunoreactivity after bolus intravenous injection in normal canines", "protocol": "as §3, §4, §5"}, "GC-A": {"biological_target": "T1, GC-A (Homo sapiens, UniProt P16066)", "T1 construct": "expressed in transfected cells; host or cells: HEK293", "T1 sequence (P16066 33-1061)": "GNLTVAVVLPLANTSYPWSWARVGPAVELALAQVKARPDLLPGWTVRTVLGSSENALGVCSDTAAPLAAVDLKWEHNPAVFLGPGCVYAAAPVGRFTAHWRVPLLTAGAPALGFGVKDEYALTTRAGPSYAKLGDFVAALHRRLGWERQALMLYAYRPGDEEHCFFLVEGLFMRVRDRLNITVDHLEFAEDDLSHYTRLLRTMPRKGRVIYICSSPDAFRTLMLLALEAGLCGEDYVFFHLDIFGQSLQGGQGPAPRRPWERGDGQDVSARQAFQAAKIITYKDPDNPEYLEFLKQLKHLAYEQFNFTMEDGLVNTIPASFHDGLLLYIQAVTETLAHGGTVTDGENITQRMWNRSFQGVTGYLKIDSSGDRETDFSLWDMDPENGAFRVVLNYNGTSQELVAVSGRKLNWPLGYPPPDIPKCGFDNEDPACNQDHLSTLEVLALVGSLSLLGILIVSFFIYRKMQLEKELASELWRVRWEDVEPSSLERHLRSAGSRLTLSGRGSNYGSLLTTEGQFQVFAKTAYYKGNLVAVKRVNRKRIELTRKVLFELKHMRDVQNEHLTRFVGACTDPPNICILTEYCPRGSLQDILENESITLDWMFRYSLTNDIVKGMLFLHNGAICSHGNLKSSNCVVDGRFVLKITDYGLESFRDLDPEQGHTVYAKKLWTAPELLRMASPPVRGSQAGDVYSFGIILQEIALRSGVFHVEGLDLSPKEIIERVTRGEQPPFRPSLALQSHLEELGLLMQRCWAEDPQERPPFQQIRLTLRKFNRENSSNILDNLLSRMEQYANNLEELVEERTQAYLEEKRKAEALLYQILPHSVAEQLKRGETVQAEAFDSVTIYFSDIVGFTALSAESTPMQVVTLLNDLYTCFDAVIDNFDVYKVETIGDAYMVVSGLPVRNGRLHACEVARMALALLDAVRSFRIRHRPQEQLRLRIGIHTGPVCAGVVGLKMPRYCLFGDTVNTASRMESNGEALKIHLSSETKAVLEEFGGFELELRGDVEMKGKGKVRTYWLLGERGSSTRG", "test": "cGMP production in HEK293 cells overexpressing GC-A", "type": "cell-based", "from_the_text": "(§2) FIGS. 5A-5D depict proANP effects in vitro. FIG. 5A is a pair of graphs plotting cGMP production in GC-A or GC-B overexpressing HEK293 cells treated with proANP, proBNP, or mature ANP or BNP, as indicated. *p<0.05 vs. non-treated cells. FIG. 5B is a pair of graphs plotting cGMP production in GC-A or GC-B overexpressing HEK293 cells treated with proANP (10^−8 M) in serum or PBS, as indicated. *p<0.05 vs. non-treated cells. †p<0.05 vs. PBS-treated proANP. FIG. 5C is a series of photographs showing immunocytochemistry for collagen type I (Col I), GC-A, and corin in cardiac fibroblasts (CFs). NHS served as a negative control. Magnification is 100×. FIG. 5D is a graph plotting the time course of cGMP production in CFs treated with ANP or proANP (10^−7M). […] Data are mean±SEM.\nas §1"}, "[3]": {"test_system": "human cardiac fibroblasts (CFs)", "test": "cGMP production in human cardiac fibroblasts", "type": "cell-based", "conditions": "10^−7 M", "from_the_text": "as §2, §1\nFurther studies utilized human CFs in which GC-A and proANP convertase corin exist (FIG. 5C)."}, "[4]": {"test": "Processing and degradation of His-tagged proANP in human serum ex vivo", "protocol": "Exogenous proANP was incubated in human serum at 37° C. Processed and unprocessed proANP peptides were isolated by immunoprecipitation using His-tag beads, followed by detection via Western blotting with 6×His antibody. […] FIG. 4C is a graph plotting densitometric analysis of processed ANP1-28 from proANP that was incubated in serum from normal subjects and HF patients for the indicated times. Values are mean±SEM. *p<0.05 vs. 0 min."}, "[5]": {"conditions": "667 pmol/kg intravenous, comparison of the three NPs"}, "[6]": {"conditions": "normal canines, 667 pmol/kg intravenous"}}, "note": "Like-named read-outs stand apart in the source and are kept apart here."}
{"molecule": "CC[C@H](C)[C@@H]1NC(=O)[C@H](CCCNC(=N)N)NC(=O)[C@H](CC(=O)O)NC(=O)[C@H](CCSC)NC(=O)[C@H](CCCNC(=N)N)NC(=O)CNC(=O)CNC(=O)[C@H](Cc2ccccc2)NC(=O)[C@@H](NC(=O)[C@H](CO)NC(=O)[C@H](CO)NC(=O)[C@H](CCCNC(=N)N)NC(=O)[C@H](CCCNC(=N)N)NC(=O)[C@H](CC(C)C)NC(=O)[C@@H](N)CO)CSSC[C@@H](C(=O)N[C@@H](CC(N)=O)C(=O)N[C@@H](CO)C(=O)N[C@@H](Cc2ccccc2)C(=O)N[C@@H](CCCNC(=N)N)C(=O)N[C@@H](Cc2ccc(O)cc2)C(=O)O)NC(=O)CNC(=O)[C@H](CC(C)C)NC(=O)CNC(=O)[C@H](CO)NC(=O)[C@H](CCC(N)=O)NC(=O)[C@H](C)NC(=O)CNC1=O", "note": "[ANP, atrial natriuretic peptide]", "values": [{"measurement": "AUC", "setting": "in vivo", "value": 0.2, "unit": "nM·h"}, {"measurement": "Tmax", "setting": "in vivo", "value": 2, "unit": "min"}]}
{"molecule": "CC[C@H](C)[C@@H]1NC(=O)[C@H](CCCNC(=N)N)NC(=O)[C@H](CC(=O)O)NC(=O)[C@H](CCSC)NC(=O)[C@H](CCCCN)NC(=O)[C@H](CCCNC(=N)N)NC(=O)CNC(=O)[C@H](Cc2ccccc2)NC(=O)[C@@H](NC(=O)CNC(=O)[C@H](CO)NC(=O)CNC(=O)[C@H](CCC(N)=O)NC(=O)[C@@H](NC(=O)[C@H](CCSC)NC(=O)[C@H](CCCCN)NC(=O)[C@@H]2CCCN2C(=O)[C@@H](N)CO)C(C)C)CSSC[C@@H](C(=O)N[C@@H](CCCCN)C(=O)N[C@H](C(=O)N[C@@H](CC(C)C)C(=O)N[C@@H](CCCNC(=N)N)C(=O)N[C@@H](CCCNC(=N)N)C(=O)N[C@@H](Cc2c[nH]cn2)C(=O)O)C(C)C)NC(=O)CNC(=O)[C@H](CC(C)C)NC(=O)CNC(=O)[C@H](CO)NC(=O)[C@H](CO)NC(=O)[C@H](CO)NC(=O)[C@H](CO)NC1=O", "note": "[BNP, B-type natriuretic peptide, reference compound]", "values": [{"measurement": "PcGMP AUC", "setting": "cGMP", "value": 13406.9, "unit": "pmol·min/mL"}, {"measurement": "PcGMP Cmax", "setting": "cGMP", "value": 255.4, "unit": "pmol/mL"}, {"measurement": "UcGMP AUC", "setting": "cGMP", "value": 207454, "unit": "pmol·min/mL"}, {"measurement": "UcGMP Cmax", "setting": "cGMP", "value": 6936.2, "unit": "pmol/mL"}, {"measurement": "effect on blood pressure (BP)", "setting": "[1]; [5]", "value": "greatest effect"}, {"measurement": "AUC", "setting": "[2]; dog, plasma, iv, 667 pmol/kg", "value": 0.0517, "unit": "nM·h"}, {"measurement": "Cmax", "setting": "[2]; dog, plasma, iv, 667 pmol/kg", "value": 0.43, "unit": "nM"}, {"measurement": "Tmax", "setting": "[2]; dog, plasma, iv, 667 pmol/kg", "value": 2, "unit": "min"}, {"measurement": "half-life", "setting": "[2]; dog, plasma, iv, 667 pmol/kg", "value": 3.7, "unit": "min"}, {"measurement": "decline of plasma immunoreactivity after the peak", "setting": "[2]; [6]", "value": "decreased rapidly"}]}
{"molecule": "B1", "values": [{"measurement": "AUC for plasma cGMP (PcGMP) relative to ANP or BNP", "setting": "cGMP; 667 pmol/kg intravenous", "value": "less than that for ANP or BNP"}, {"measurement": "AUC for urinary cGMP excretion (UcGMP) relative to ANP or BNP", "setting": "cGMP; 667 pmol/kg intravenous", "value": "twice that of ANP or BNP"}, {"measurement": "PcGMP AUC", "setting": "cGMP", "value": 6110.5, "unit": "pmol·min/mL"}, {"measurement": "PcGMP Cmax", "setting": "cGMP", "value": 93.8, "unit": "pmol/mL"}, {"measurement": "UcGMP AUC", "setting": "cGMP", "value": 420368, "unit": "pmol·min/mL"}, {"measurement": "UcGMP Cmax", "setting": "cGMP", "value": 7027.8, "unit": "pmol/mL"}, {"measurement": "effect on cardiac output", "setting": "[1]; 667 pmol/kg intravenous", "value": "less than that of either ANP or BNP"}, {"measurement": "effect on renal blood flow", "setting": "[1]; 667 pmol/kg intravenous", "value": "less effect on renal blood flow"}, {"measurement": "diuretic and natriuretic actions (urine volume, urinary sodium excretion)", "setting": "[1]; [5]", "value": "strongest and longest"}, {"measurement": "effect on blood pressure (BP)", "setting": "[1]; [5]", "value": "less of an effect on BP as compared to the other two NPs"}, {"measurement": "effect on heart rate", "setting": "[1]; first 90 minutes, then increased by about 120 minutes", "value": "less than that of ANP or BNP"}, {"measurement": "cGMP production", "setting": "GC-A; HEK293 cells overexpressing GC-A", "value": "lower than ANP but much higher than proBNP"}, {"measurement": "cGMP production by proANP treated in serum for 5 minutes", "setting": "GC-A; proANP 10^−8 M, treated in serum 5 minutes, versus untreated proANP", "value": "stimulated cGMP production significantly as compared to untreated proANP"}, {"measurement": "cGMP production by proANP treated in serum for 180 minutes", "setting": "GC-A; proANP 10^−8 M, treated in serum 180 minutes", "value": "decreased"}, {"measurement": "cGMP production relative to ANP", "setting": "[3]; after 60 minutes", "value": "about equal"}, {"measurement": "cGMP levels compared to 0 minutes", "setting": "[3]; all time points", "value": "significant increases in cGMP levels"}, {"measurement": "cGMP production relative to ANP", "setting": "[3]; first 30 minutes", "value": "about half as much as ANP"}, {"measurement": "processing of proANP in normal human serum", "setting": "[4]; His-tagged proANP, 37° C., 5 minute incubation, normal serum", "value": "processed into ANP1-28"}, {"measurement": "proANP processing into ANP1-28 in HF serum compared to normals", "setting": "[4]; serum from HF patients", "value": "preserved"}, {"measurement": "NPi AUC", "setting": "[2]; NP immunoreactivity, normal canines, equimolar intravenous bolus 667 pmol/kg", "value": 28.1, "unit": "pmol·min/mL"}, {"measurement": "AUC for NP immunoreactivity relative to ANP", "setting": "[2]; [6]", "value": "twice that of ANP"}, {"measurement": "decline of plasma immunoreactivity after the peak", "setting": "[2]; [6]", "value": "decreased more slowly than ANP or BNP"}, {"measurement": "time of peak plasma immunoreactivity after injection", "setting": "[2]; [6]", "value": 2, "unit": "min"}, {"measurement": "half-life", "setting": "[2]; normal canines, equimolar intravenous bolus 667 pmol/kg", "value": 20.7, "unit": "min"}, {"measurement": "half-life relative to ANP", "setting": "[2]; normal canines, pharmacokinetic analysis", "value": "about 4 times"}, {"measurement": "Cmax", "setting": "[2]; read-out: NPi Cmax, NP immunoreactivity, normal canines, equimolar intravenous bolus 667 pmol/kg", "value": 0.96, "unit": "nM"}]}
